According to publication doi:10.1101/731679, “Structural insights into the mechanism of the human soluble guanylate cyclase” (bioRxiv, 2019):

T1: cys-less human sGC α1 subunit with L275C (α1^CL L275C), C-terminal GFP-strep (human, UniProt Q02108 64-690, C176A | C239A | C669S | C455Y | C460G | L275C)
T1 construct: soluble guanylate cyclase α1 subunit, human; the cys-rich N-terminal 63 amino acids removed; cys-less background plus L275C; also called α1 L275C; source: HEK293F, transfected (BacMam vector), purified with β1 on Streptactin Beads 4FF; not shown: GFP, C-terminal, kept; strep, C-terminal, kept
T1 sequence (looked up): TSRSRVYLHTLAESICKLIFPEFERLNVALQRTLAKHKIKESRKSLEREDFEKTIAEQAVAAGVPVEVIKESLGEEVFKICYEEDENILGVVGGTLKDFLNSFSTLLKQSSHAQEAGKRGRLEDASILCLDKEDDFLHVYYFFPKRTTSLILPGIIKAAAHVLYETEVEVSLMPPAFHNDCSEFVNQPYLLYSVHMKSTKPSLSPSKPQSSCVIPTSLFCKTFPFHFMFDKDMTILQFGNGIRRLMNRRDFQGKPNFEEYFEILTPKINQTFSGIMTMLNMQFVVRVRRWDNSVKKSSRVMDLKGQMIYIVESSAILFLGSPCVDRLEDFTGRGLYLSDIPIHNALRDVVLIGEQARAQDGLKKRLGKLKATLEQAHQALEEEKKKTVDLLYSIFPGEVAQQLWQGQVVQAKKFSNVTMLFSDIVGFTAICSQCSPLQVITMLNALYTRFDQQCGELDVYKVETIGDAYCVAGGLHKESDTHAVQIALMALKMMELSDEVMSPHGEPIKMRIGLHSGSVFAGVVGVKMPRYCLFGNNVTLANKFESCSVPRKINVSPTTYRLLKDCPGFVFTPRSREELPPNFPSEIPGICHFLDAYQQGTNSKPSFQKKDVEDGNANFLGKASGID

T2: cys-less human sGC α1 subunit with L425C (α1^CL L425C), C-terminal GFP-strep (human, UniProt Q02108 64-690, C176A | C239A | C669S | C455Y | C460G | L425C)
T2 construct: soluble guanylate cyclase α1 subunit, human; the cys-rich N-terminal 63 amino acids removed; cys-less background plus L425C; also called α1 L425C; source: HEK293F, transfected (BacMam vector), purified with β1 on Streptactin Beads 4FF; not shown: GFP, C-terminal, kept; strep, C-terminal, kept
T2 sequence (looked up): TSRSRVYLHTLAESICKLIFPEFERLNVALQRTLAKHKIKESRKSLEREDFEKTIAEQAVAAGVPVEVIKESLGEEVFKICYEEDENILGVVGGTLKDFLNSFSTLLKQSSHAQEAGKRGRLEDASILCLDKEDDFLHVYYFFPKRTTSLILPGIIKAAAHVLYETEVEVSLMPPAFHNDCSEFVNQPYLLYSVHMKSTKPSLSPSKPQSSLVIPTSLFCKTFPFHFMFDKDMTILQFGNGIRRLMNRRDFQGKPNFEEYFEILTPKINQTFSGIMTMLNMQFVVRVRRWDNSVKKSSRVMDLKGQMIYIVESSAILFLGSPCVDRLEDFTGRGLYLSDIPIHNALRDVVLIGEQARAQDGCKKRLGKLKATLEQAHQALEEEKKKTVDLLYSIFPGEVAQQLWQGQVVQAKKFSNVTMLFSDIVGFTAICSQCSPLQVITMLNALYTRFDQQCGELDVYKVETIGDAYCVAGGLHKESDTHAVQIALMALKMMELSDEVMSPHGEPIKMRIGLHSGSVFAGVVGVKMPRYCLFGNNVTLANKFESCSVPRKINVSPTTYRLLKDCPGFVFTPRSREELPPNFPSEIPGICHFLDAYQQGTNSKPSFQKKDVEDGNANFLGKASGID


What was measured:
[1] = molecular target: T1, cys-less human sGC α1 subunit with …; assay: cross-linking; disulfide cross-linking of Streptactin-purified cys-less sGC with 0.1 mM Cu(II)(1,10-phenanthroline)3 on ice for 30 min; SDS-PAGE non-reducing or reducing (100 mM DTT); in-gel GFP fluorescence of α1; settings: both partners purified
[2] = molecular target: T2, cys-less human sGC α1 subunit with …; assay: as above; settings: both partners purified

Row | binding result [1] | binding result [2] | Binder
1 | binds | – | cys-less human sGC β1 subunit with A316C (β1^CL A316C), without tags (natural protein, UniProt Q02153 1-619, looked up, soluble guanylate cyclase β1 subunit, human; cys-less background (C292N) plus A316C; The PDB entries are of the wild-type parent; also called β1 A316C; source: HEK293F, transfected (BacMam vector), purified with α1 on Streptactin Beads 4FF) MYGFVNHALELLVIRNYGPEVWEDIKKEAQLDEEGQFLVRIIYDDSKTYDLVAAASKVLNLNAGEILQMFGKMFFVFCQESGYDTILRVLGSNVREFLQNLDALHDHLATIYPGMRAPSFRCTDAEKGKGLILHYYSEREGLQDIVIGIIKTVAQQIHGTEIDMKVIQQRNEECDHTQFLIEEKESKEEDFYEDLDRFEENGTQESRISPYTFCKAFPFHIIFDRDLVVTQCGNAIYRVLPQLQPGNCSLLSVFSLVRPHIDISFHGILSHINTVFVLRSKEGLLDVEKLENEDELTGTEISCLRLKGQMIYLPECDSILFLCSPSVMNLDDLTRRGLYLSDIPLHDATRDLVLLGEQFREEYKLTQELEILTDRLQLTLRALEDEKKKTDTLLYSVLPPSVANELRHKRPVPAKRYDNVTILFSGIVGFNAFCSKHASGEGAMKIVNLLNDLYTRFDTLTDSRKNPFVYKVETVGDKYMTVSGLPEPCIHHARSICHLALDMMEIAGQVQVDGESVQITIGIHTGEVVTGVIGQRMPRYCLFGNTVNLTSRTETTGEKGKINVSEYTYRCLMSPENSDPQFHLEHRGPVSMKGKKEPMQVWFLSRKNTGTEETKQDDD
2 | – | binds | cys-less human sGC β1 subunit with L365C (β1^CL L365C), without tags (natural protein, UniProt Q02153 1-619, looked up, soluble guanylate cyclase β1 subunit, human; cys-less background (C292N) plus L365C; The PDB entries are of the wild-type parent; also called β1 L365C; source: HEK293F, transfected (BacMam vector), purified with α1 on Streptactin Beads 4FF) MYGFVNHALELLVIRNYGPEVWEDIKKEAQLDEEGQFLVRIIYDDSKTYDLVAAASKVLNLNAGEILQMFGKMFFVFCQESGYDTILRVLGSNVREFLQNLDALHDHLATIYPGMRAPSFRCTDAEKGKGLILHYYSEREGLQDIVIGIIKTVAQQIHGTEIDMKVIQQRNEECDHTQFLIEEKESKEEDFYEDLDRFEENGTQESRISPYTFCKAFPFHIIFDRDLVVTQCGNAIYRVLPQLQPGNCSLLSVFSLVRPHIDISFHGILSHINTVFVLRSKEGLLDVEKLENEDELTGTEISCLRLKGQMIYLPEADSILFLCSPSVMNLDDLTRRGLYLSDIPLHDATRDLVLLGEQFREEYKCTQELEILTDRLQLTLRALEDEKKKTDTLLYSVLPPSVANELRHKRPVPAKRYDNVTILFSGIVGFNAFCSKHASGEGAMKIVNLLNDLYTRFDTLTDSRKNPFVYKVETVGDKYMTVSGLPEPCIHHARSICHLALDMMEIAGQVQVDGESVQITIGIHTGEVVTGVIGQRMPRYCLFGNTVNLTSRTETTGEKGKINVSEYTYRCLMSPENSDPQFHLEHRGPVSMKGKKEPMQVWFLSRKNTGTEETKQDDD
